Laboratory results as given in publication PMC4329983 (Molecular imaging and biology : MIB : the official …, 2013).

Assays:
[1] = cited from earlier work
[2] = Biodistribution in AR42J tumor-bearing mice; type: in vivo; details: mouse, in vivo
[3] = test system: AR42J tumor bearing athymic nude mice; assay: Biodistribution in AR42J tumor-bearing mice; type: in vivo
[4] = test system: AR42J rat pancreatic cancer cells; assay: Internalization studies of 68Ga-labeled conjugates in AR42J cells; type: cell-based; details: 37 °C, 10-120 min, ~0.7 nM; reference 68Ga-DOTATOC; Fig. 2
[5] = cited from earlier work; remark: listed apart in the source

## SST-14: physiological form of somatostatin, natural SSTR ligand
[1]
  biological half-life: 2–4 min

## C[C@@H](O)[C@@H]1NC(=O)[C@H](CCCCN)NC(=O)[C@@H](Cc2c[nH]c3ccccc23)NC(=O)[C@H](Cc2ccc(O)cc2)NC(=O)[C@@H](NC(=O)[C@@H](Cc2ccccc2)NC(=O)CCC(C(=O)O)N2CCN(CC(=O)O)CCN(CC(=O)O)CC2)CSSC[C@@H](C(=O)N[C@H](CO)[C@@H](C)O)NC1=O (stereo partly drawn) [^68Ga-1, metal not drawn]
[2]; iv, kidney uptake
  tissue uptake at 0.5 h: 22.8 ± 2.22 %ID/g
  tissue uptake at 2 h: 9.79 ± 1.9 %ID/g
[2]; iv, liver uptake
  tissue uptake at 0.5 h: 0.81 ± 0.09 %ID/g
[2]; tumor uptake
  tissue uptake at 1 h: 22.3 ± 3.22 %ID/g
  tissue uptake at 2 h: 12.8 ± 4.65 %ID/g
[3]; mouse, in vivo
  tumor retention rate: 55%
  tumor/kidney ratio: significantly higher
  tumor/liver ratio: significantly higher

## C[C@@H](O)[C@@H]1NC(=O)[C@H](CCCCN)NC(=O)[C@@H](Cc2c[nH]c3ccccc23)NC(=O)[C@H](Cc2ccc(O)cc2)NC(=O)[C@@H](NC(=O)[C@@H](Cc2ccccc2)NC(=O)CCC(C(=O)O)N2CCN(C(CCC(=O)O)C(=O)O)CCN(C(CCC(=O)O)C(=O)O)CC2)CSSC[C@@H](C(=O)N[C@H](CO)[C@@H](C)O)NC1=O (stereo partly drawn) [^68Ga-3, metal not drawn]
[4]
  Internalization in AR42J cells (time course): negligible
[2]; 5 µCi, tumor uptake, 1 h p.i., AR42J xenograft, n=4
  tissue uptake at 1 h: 2.95 ± 0.62 %ID/g
[2]; 5 µCi, tumor uptake, 2 h p.i., AR42J xenograft, n=4
  tissue uptake at 2 h: 0.83 ± 0.1 %ID/g
[2]; iv, 5 µCi, kidney uptake, 30 min p.i., n=4
  tissue uptake at 0.5 h: 13.8 ± 2.22 %ID/g
[2]; iv, 5 µCi, kidney uptake, 2 h p.i., n=4
  tissue uptake at 2 h: 5.24 ± 1.03 %ID/g
[2]; iv, 5 µCi, liver uptake, 30 min p.i., n=4
  tissue uptake at 0.5 h: 0.51 ± 0.05 %ID/g
[3]; 1 h p.i., vs 68Ga-DOTATOC, 68Ga-NO2ATOC and 68Ga-2 (P<0.01), Fig. 5
  tumor/stomach ratio: significantly higher
[3]; 2 h p.i.
  tumor retention rate: 19%
[3]; 2 h p.i. relative to 30 min p.i.
  retention of the initial kidney uptake: less than 52%

## C[C@@H](O)[C@@H]1NC(=O)[C@H](CCCCN)NC(=O)[C@@H](Cc2c[nH]c3ccccc23)NC(=O)[C@H](Cc2ccc(O)cc2)NC(=O)[C@@H](NC(=O)[C@@H](Cc2ccccc2)NC(=O)CN2CCN(CC(=O)O)CCN(CC(=O)O)CCN(CC(=O)O)CC2)CSSC[C@@H](C(=O)N[C@H](CO)[C@@H](C)O)NC1=O [^68Ga-DOTATOC, metal not drawn, reference compound]
[2]; iv, kidney uptake
  tissue uptake at 0.5 h: 11.3 ± 2.07 %ID/g
  tissue uptake at 2 h: 7.33 ± 1.28 %ID/g
[2]; iv, liver uptake
  tissue uptake at 0.5 h: 0.74 ± 0.18 %ID/g
  tissue uptake at 2 h: 4.37 ± 0.2 %ID/g
[2]; tumor uptake
  tissue uptake at 1 h: 13.5 ± 6.28 %ID/g

## O=C([O-])CN1CCN(CC(=O)[O-])CCN(CC(=O)O)CCN(CC(=O)[O-])CC1.[Ga+3] [DOTA-Ga(III)]
[5]
  log K (thermodynamic stability of the Ga(III) complex): 21.3

## C[C@@H](O)[C@@H]1NC(=O)[C@H](CCCCN)NC(=O)[C@@H](Cc2c[nH]c3ccccc23)NC(=O)[C@H](Cc2ccc(O)cc2)NC(=O)[C@@H](NC(=O)[C@@H](Cc2ccccc2)NC(=O)CCC(C(=O)O)N2CCN(CC(=O)O)CCN(C(CCC(=O)O)C(=O)O)CC2)CSSC[C@@H](C(=O)N[C@H](CO)[C@@H](C)O)NC1=O (stereo partly drawn) [^68Ga-2, metal not drawn]
[4]
  Internalization in AR42J cells (time course): significantly decreased
[2]; iv, kidney uptake
  tissue uptake at 0.5 h: 18.2 ± 1.84 %ID/g
  tissue uptake at 2 h: 8.22 ± 2.29 %ID/g
[2]; iv, liver uptake
  tissue uptake at 0.5 h: 1.38 ± 0.11 %ID/g
[2]; tumor uptake
  tissue uptake at 1 h: 7.87 ± 0.41 %ID/g
  tissue uptake at 2 h: 1.78 ± 0.15 %ID/g
[3]; mouse, in vivo
  tumor retention rate: 24%

## SST-28: physiological form of somatostatin, natural SSTR ligand
[1]
  biological half-life: 2–4 min

## O=C([O-])CN1CCN(CC(=O)[O-])CCN(CC(=O)[O-])CC1.[Ga+3] [NOTA-Ga(III)]
[5]
  log K (thermodynamic stability of the Ga(III) complex): 31.0
